According to publication PMC11190312:

Experiments:
[1] = molecular target: SARS-CoV-2 N protein expressed in bacteria (N-Bact) (SARS-CoV-2) (UniProt P0DTC9); test: SPR; single cycle kinetics, […]; global fit to 1:1 Langmuir model; […]
[2] = molecular target: SARS-CoV-2 N protein secreted by mammalian Expi293 cells (N-Expi) (SARS-CoV-2) (UniProt P0DTC9); test: as above

Substance: Recombinant human MASP-2 S618A, full-length, stabilized in proenzyme form
- Kd [1]: 0.0123 µM
- koff [1]: 0.00015 s⁻¹
- kon [1]: 13900 M⁻¹ s⁻¹
- Kd [2]: 0.0137 µM
- koff [2]: 0.000172 s⁻¹
- kon [2]: 14400 M⁻¹ s⁻¹
